Source: patent publication US20240262894A1 (INSTITUTE OF MICROBIOLOGY CHINESE ACADEMY OF SCIENCES, published 2024)

How the values were obtained:
[1] = biological target: T1, F protein of RSV A-type A2 strain (on virus) (respiratory syncytial virus A-type A2 …, UniProt P03420 26-574); assay: cell-based or functional assay
[2] = biological target: T2, F protein of RSV B-type clinical isolates (on virus) (respiratory syncytial virus B-type …); assay: cell-based or functional assay
[3] = biological target: T2, F protein of RSV B-type clinical …; assay: cell-based or functional assay; remark: listed apart in the source
[4] = biological target: T3, pre-fusion F protein DS-Cav1 of RSV A2 strain (respiratory syncytial virus A2 strain); assay: SPR (Biacore), F protein immobilised on CM5 chip, Fab as analyte
T3 construct: Purified from 293T cells; also called RSV-F (DS-Cav1); RSV pre-fusion F protein

[5] = biological target: T4, post-fusion F protein (FΔFP) of RSV A2 strain (respiratory syncytial virus A2 strain, UniProt P03420 26-513); assay: as above
T4 construct: also called RSV-FΔFP; RSV post-fusion F protein

[6] = biological target: T1, F protein of RSV A-type A2 strain (on …); assay: cell-based or functional assay; remark: listed apart in the source
[7] = biological target: F protein of RSV A-type Long strain (on virus) (respiratory syncytial virus A-type Long …, UniProt P12568 26-574); assay: cell-based or functional assay
[8] = biological target: F protein of RSV A-type A2 strain (on virus) (respiratory syncytial virus A-type A2 …, UniProt P03420 26-574); assay: cell-based or functional assay; remark: listed apart in the source
[9] = biological target: F protein of RSV A-type Long strain (on virus) (respiratory syncytial virus A-type Long …, UniProt P12568 26-574); assay: cell-based or functional assay; remark: listed apart in the source

Binder | IC50 (ng/mL), neutralization of RSV A-type A2 strain on Hep2 cells, flow cytometry [1] | neutralization activity against RSV B-type clinical isolates relative to palivizumab [2] | IC50 (ng/mL), neutralization of RSV B-type clinical isolates on Hep2 cells, flow cytometry [3] | Kd [4] | Kd [5] | other results
RV8 antibody (human IgG1) (antibody, V domains shown) VH: QVQLVQSGGGVVQPGRSLRLSCAASGFTFSSYAMHWVRQAPGKGLEWMAVISYDGSNTYYADSVKGRFTISRDNSKNTLYLQMNSLRAEDTAMFYCARDYCSRGTCYHDYWGQGTLVTVSS VL: DIVLTQSPSSLSASVGDRVTITCRASQDIRNDLSWYQQKPGKAPKLLIYAASSLQSGVPSRFSGSGSGTDFTLTISSLQPEDFATYSCLQDYNYPQTFGQGTKVEIKR | 540 ng/mL | 7.7 times | 183 ng/mL |  |  | 
RV8 Fab (Fab, V domains shown, Fab made by enzyme digestion of the human IgG1/kappa antibody; also called Fab of RV8 antibody; not shown: limits not st) VH: QVQLVQSGGGVVQPGRSLRLSCAASGFTFSSYAMHWVRQAPGKGLEWMAVISYDGSNTYYADSVKGRFTISRDNSKNTLYLQMNSLRAEDTAMFYCARDYCSRGTCYHDYWGQGTLVTVSS VL: DIVLTQSPSSLSASVGDRVTITCRASQDIRNDLSWYQQKPGKAPKLLIYAASSLQSGVPSRFSGSGSGTDFTLTISSLQPEDFATYSCLQDYNYPQTFGQGTKVEIKR |  |  |  | 0.0256 µM | 0.0175 µM | 
RV11 antibody (human IgG1) (antibody, V domains shown) VH: QVQLVQSGGGVVQPGRSLRLSCAASGFSFTNYGMHWVRQAPGKGLEWVAVISYDDGSDKYYADSVKGRFTISRDNSKNTLYLQMNSLRAEDTAVYYCVRDPTGDYGDFPEQDGYYYYYGMDVWGQGTTVTVSS VL: QAVLTQPPSASGTPGQRVTISCSGSSLNIGSNYVYWYQQLPGTAPKFLIYKNNQRPSGVPDRFSGSKSGTSASLAISGLRSEDEADYYCAAWDDSLSGVVFGGGTKLTVLG | 42.3 ng/mL | ~45 times | 31.4 ng/mL |  |  | neutralization activity against RSV A2 relative to palivizumab [6]: ~18 times; neutralization activity against RSV Long relative to palivizumab [7]: ~16 times
RV7 Fab (Fab, V domains shown, Fab made by enzyme digestion (immobilised enzyme beads, Thermo 20341) of the human IgG1/kappa antibody; also called Fab of RV7 antibody; not shown: limits not st) VH: QVQLQESGPGLVKPSETLSLTCTVSGGSISSYYLSWIRQPPGKGLEWIGYIYHTGSTNYNPSLKSRVTISVHSSKNQFSLKLTSVTAADTAVYYCARHMRIVTTIDYWGQGTLVTVSS VL: DIVMTQSPSSLSASVGDRVTLTCRASQGISSYLAWYQQKPGKVPKLLIYAASTLQSGVPSRFSGSGSGTDFTLTISSLQPEDVATYYCQKYNSAPWTFGQGTKVEIKR |  |  |  |  |  | binding result [4]: no binding; binding result [5]: no binding
Palivizumab (antibody, V domains shown) VH: QVTLRESGPALVKPTQTLTLTCTFSGFSLSTSGMSVGWIRQPPGKALEWLADIWWDDKKDYNPSLKSRLTISKDTSKNQVVLKVTNMDPADTATYYCARSMITNWYFDVWGAGTTVTVSS VL: DIQMTQSPSTLSASVGDRVTITCKCQLSVGYMHWYQQKPGKAPKLLIYDTSKLASGVPSRFSGSGSGTEFTLTISSLQPDDFATYYCFQGSGYPFTFGGGTKLEIK |  |  |  |  |  | IC50 (ng/mL), neutralization of RSV A-type A2 strain on Hep2 cells, flow cytometry [8]: 751 ng/mL; IC50 (ng/mL), neutralization of RSV A-type Long strain on Hep2 cells, flow cytometry [9]: 897 ng/mL
RV10 Fab (Fab, V domains shown, Fab made by enzyme digestion of the human IgG1/lambda antibody; also called Fab of RV10 antibody; not shown: limits not st) VH: QVQLVQSGAEVKKPGASVKVSCKASGYTFTTYDFHWVRQAPGQGLEWIGWLNPDNGNTKHSQKFQGRVTFTRDTSASTAFMELSSLRSEDTAVYYCTRAPWWWYFDYWGQGTLVTVSS VL: NFMLTQPHSVSESPGKTVTISCTRSSGSIASNYVQWCQQRPGSSPTTVIYEDNQRPSGVPDRFSGSIDSSSNSASLTISGLRTEDEADYYCQSYDTSNAVFGGGTKLTVLG |  |  |  | 0.0101 µM | 0.0071 µM | 
